Starred links: 1 amine or outer side, 2 acyl side, 3 side chain; linkers in the order of their positions; H or OH if unused. Positions of bridges follow the written chain, without caps; N, C: chain ends. NH(CH2)3(OCH2CH2)2O(CH2)3NH = C(CN[*:1])COCCOCCOCCCN[*:2]
How the values were obtained:
[1] = target: T1, human BACE1 extracellular domain (residues 22-457), wild type, C-terminal His8 (human, UniProt P56817 22-457); test: ELISA; biotinylated BACE020 on plate-coated BACE1 ECD (WT, the reference)
T1 construct: Expressed in CHO cells with the BACE1 signal peptide; also called WT; BACE1 ECD
T1 sequence (P56817 other isoform, or with tags, fused parts or gaps): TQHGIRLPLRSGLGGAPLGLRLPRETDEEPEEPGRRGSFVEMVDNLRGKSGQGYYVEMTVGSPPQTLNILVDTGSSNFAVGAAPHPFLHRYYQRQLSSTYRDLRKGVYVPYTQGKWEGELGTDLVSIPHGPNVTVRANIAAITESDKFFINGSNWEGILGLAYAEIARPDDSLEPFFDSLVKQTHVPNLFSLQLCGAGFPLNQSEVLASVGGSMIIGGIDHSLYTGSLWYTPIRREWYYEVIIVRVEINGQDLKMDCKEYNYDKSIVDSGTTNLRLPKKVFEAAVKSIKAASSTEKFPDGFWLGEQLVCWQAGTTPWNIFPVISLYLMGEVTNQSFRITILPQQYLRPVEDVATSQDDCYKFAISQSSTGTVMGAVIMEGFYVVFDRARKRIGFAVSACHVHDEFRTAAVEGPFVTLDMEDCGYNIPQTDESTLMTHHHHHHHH
Procedure: (§1) Maxisorp microtiter plates (Nalge Nunc International, Rochester, N.Y.) were coated overnight at 4° C. with 2 μg/ml BACE1 mutant in 50 mM carbonate, pH 9.6. The coated wells were washed with buffer (PBS, 0.05% Polysorbate 20) and blocked with assay buffer (PBS, pH 7.4, 0.5% BSA, 0.05% Tween 20, 15 ppm Proclin) for 1 h at room temperature with gentle shaking. […] After washing, the amount of peptide bound to the plate was detected by the addition of Streptavidin-Horseradish Peroxidase Conjugate (GE Healthcare, Piscataway, N.J.) followed by the addition of TMB/H₂O₂ substrate (KPL, Gaithersburg, Md.). The reaction was quenched with 1 M phosphoric acid and the A₄₅₀ measured on a Molecular Devices SpectraMax Plus384 microplate reader. Concentrations to give half maximal effective concentration (EC₅₀) were determined using a 4-parameter non-linear regression curve-fitting program with Kaleidagraph (Synergy Software, Reading, Pa.). […] Concentrations to give half maximal inhibition concentration (IC₅₀) were determined using a 4-parameter non-linear regression curve-fitting program with Kaleidagraph.
(§2) The fold decrease in binding affinity was determined as the relative EC₅₀ values of EC₅₀ (mut)/EC₅₀ (WT), which are listed in Table 3.

[2] = target: T2, human BACE1 ECD (22-457) Q134A, His8 (human, UniProt P56817 22-457); test: ELISA; biotinylated BACE020 on plate-coated BACE1 ECD mutant; ratio to WT
T2 construct: also called Q134A (73)
T2 sequence (P56817 other isoform, or with tags, fused parts or gaps Q134A Q134A): as the sequence (P56817 other isoform, or with tags, fused parts or gaps) above, with Q113A counted along it
Procedure: as §1, §2

[3] = target: T3, human BACE1 ECD (22-457) K168A, His8 (human, UniProt P56817 22-457); test: as above
T3 construct: also called K168A (107)
T3 sequence (P56817 other isoform, or with tags, fused parts or gaps K168A K168A): as the sequence (P56817 other isoform, or with tags, fused parts or gaps) above, with K147A counted along it
Procedure: as §1, §2

[4] = target: T4, human BACE1 ECD (22-457) I171A, His8 (human, UniProt P56817 22-457); test: as above
T4 construct: also called I171A (110)
T4 sequence (P56817 other isoform, or with tags, fused parts or gaps I171A I171A): as the sequence (P56817 other isoform, or with tags, fused parts or gaps) above, with I150A counted along it
Procedure: as §1, §2

[5] = target: T5, human BACE1 ECD (22-457) W176A, His8 (human, UniProt P56817 22-457); test: as above
T5 construct: also called W176A (115)
T5 sequence (P56817 other isoform, or with tags, fused parts or gaps W176A W176A): as the sequence (P56817 other isoform, or with tags, fused parts or gaps) above, with W155A counted along it
Procedure: as §1, §2

[6] = target: T6, human BACE1 ECD (22-457) I179A, His8 (human, UniProt P56817 22-457); test: as above
T6 construct: also called I179A (118)
T6 sequence (P56817 other isoform, or with tags, fused parts or gaps I179A I179A): as the sequence (P56817 other isoform, or with tags, fused parts or gaps) above, with I158A counted along it
Procedure: as §1, §2

[7] = target: T7, human BACE1 ECD (22-457) K285A, His8 (human, UniProt P56817 22-457); test: as above
T7 construct: also called K285A (224)
T7 sequence (P56817 other isoform, or with tags, fused parts or gaps K285A K285A): as the sequence (P56817 other isoform, or with tags, fused parts or gaps) above, with K264A counted along it
Procedure: as §1, §2

[8] = target: T8, human BACE1 ECD (22-457) D289A, His8 (human, UniProt P56817 22-457); test: as above
T8 construct: also called D289A (228)
T8 sequence (P56817 other isoform, or with tags, fused parts or gaps D289A D289A): as the sequence (P56817 other isoform, or with tags, fused parts or gaps) above, with D268A counted along it
Procedure: as §1, §2

[9] = target: T9, human BACE1 ECD (22-457) G291A, His8 (human, UniProt P56817 22-457); test: as above
T9 construct: also called G291A (230)
T9 sequence (P56817 other isoform, or with tags, fused parts or gaps G291A G291A): as the sequence (P56817 other isoform, or with tags, fused parts or gaps) above, with G270A counted along it
Procedure: as §1, §2

[10] = target: T10, human BACE1 ECD (22-457) T292A, His8 (human, UniProt P56817 22-457); test: as above
T10 construct: also called T292A (231)
T10 sequence (P56817 other isoform, or with tags, fused parts or gaps T292A T292A): as the sequence (P56817 other isoform, or with tags, fused parts or gaps) above, with T271A counted along it
Procedure: as §1, §2

[11] = target: T11, human BACE1 ECD (22-457) T293A, His8 (human, UniProt P56817 22-457); test: as above
T11 construct: also called T293A (232)
T11 sequence (P56817 other isoform, or with tags, fused parts or gaps T293A T293A): as the sequence (P56817 other isoform, or with tags, fused parts or gaps) above, with T272A counted along it
Procedure: as §1, §2

[12] = target: T12, human BACE1 ECD (22-457) K382A, His8 (human, UniProt P56817 22-457); test: as above
T12 construct: also called K382A (321)
T12 sequence (P56817 other isoform, or with tags, fused parts or gaps K382A K382A): as the sequence (P56817 other isoform, or with tags, fused parts or gaps) above, with K361A counted along it
Procedure: as §1, §2

[13] = target: T13, human BACE1 ECD (22-457) T390A, His8 (human, UniProt P56817 22-457); test: as above
T13 construct: also called T390A (329)
T13 sequence (P56817 other isoform, or with tags, fused parts or gaps T390A T390A): as the sequence (P56817 other isoform, or with tags, fused parts or gaps) above, with T369A counted along it
Procedure: as §1, §2

[14] = target: T14, human BACE1 ECD (22-457) Q73A, His8 (human, UniProt P56817 22-457); test: as above
T14 construct: also called Q73A (12)
T14 sequence (P56817 other isoform, or with tags, fused parts or gaps Q73A Q73A): as the sequence (P56817 other isoform, or with tags, fused parts or gaps) above, with Q52A counted along it
Procedure: as §1, §2

[15] = target: T15, human BACE1 ECD (22-457) L91A, His8 (human, UniProt P56817 22-457); test: as above
T15 construct: also called L91A (30)
T15 sequence (P56817 other isoform, or with tags, fused parts or gaps L91A L91A): as the sequence (P56817 other isoform, or with tags, fused parts or gaps) above, with L70A counted along it
Procedure: as §1, §2

[16] = target: T16, human BACE1 ECD (22-457) D93A, His8 (human, UniProt P56817 22-457); test: as above
T16 construct: also called D93A (32)
T16 sequence (P56817 other isoform, or with tags, fused parts or gaps D93A D93A): as the sequence (P56817 other isoform, or with tags, fused parts or gaps) above, with D72A counted along it
Procedure: as §1, §2

[17] = target: T17, human BACE1 ECD (22-457) S96A, His8 (human, UniProt P56817 22-457); test: as above
T17 construct: also called S96A (35)
T17 sequence (P56817 other isoform, or with tags, fused parts or gaps S96A S96A): as the sequence (P56817 other isoform, or with tags, fused parts or gaps) above, with S75A counted along it
Procedure: as §1, §2

[18] = target: T18, human BACE1 ECD (22-457) Y132A, His8 (human, UniProt P56817 22-457); test: as above
T18 construct: also called Y132A (71)
T18 sequence (P56817 other isoform, or with tags, fused parts or gaps Y132A Y132A): as the sequence (P56817 other isoform, or with tags, fused parts or gaps) above, with Y111A counted along it
Procedure: as §1, §2

B1: biotinylated BACE020 (Ac-NEESMYCRLLGIGCG-(PEG)3-biotin) (peptide)
peptide: Ac-NEESMYCRLLGIGCG-{NH(CH2)3(OCH2CH2)2O(CH2)3NH-biotin}
modifications: disulfide 7-14
notes: also called C-terminal biotin tagged BACE020 peptide
Fold Decrease in Binding EC50 (Mut)/EC50 (WT) [1]: 1 fold | Fold Decrease in Binding EC50 (Mut)/EC50 (WT) [2]: 1990 fold | Fold Decrease in Binding EC50 (Mut)/EC50 (WT) [3]: 1 fold | Fold Decrease in Binding EC50 (Mut)/EC50 (WT) [4]: 1020 fold | Fold Decrease in Binding EC50 (Mut)/EC50 (WT) [5]: 690 fold | Fold Decrease in Binding EC50 (Mut)/EC50 (WT) [6]: 2.6 fold | Fold Decrease in Binding EC50 (Mut)/EC50 (WT) [7]: 4 fold | Fold Decrease in Binding EC50 (Mut)/EC50 (WT) [8]: 2210 fold | Fold Decrease in Binding EC50 (Mut)/EC50 (WT) [9]: 0.8 fold | Fold Decrease in Binding EC50 (Mut)/EC50 (WT) [10]: 73.6 fold | Fold Decrease in Binding EC50 (Mut)/EC50 (WT) [11]: 349 fold | Fold Decrease in Binding EC50 (Mut)/EC50 (WT) [12]: 4.5 fold | Fold Decrease in Binding EC50 (Mut)/EC50 (WT) [13]: 0.9 fold | Fold Decrease in Binding EC50 (Mut)/EC50 (WT) [14]: 1.7 fold | Fold Decrease in Binding EC50 (Mut)/EC50 (WT) [15]: 1 fold | Fold Decrease in Binding EC50 (Mut)/EC50 (WT) [16]: 568 fold | Fold Decrease in Binding EC50 (Mut)/EC50 (WT) [17]: 1 fold | Fold Decrease in Binding EC50 (Mut)/EC50 (WT) [18]: 72.2 fold

— patent publication US20140228277A1 (Genentech, published 2014)
